The supplement of paper PMC7877785
± gives the uncertainty stated by the source.

Test: self-splicing fitness, log relative to wild type (ln ratio); higher = more splicing; Tetrahymena group I intron in knt gene, E. coli kanamycin selection, DiMSum; sequences stand for … in CUCUCU…GGAGGGAAAAGUUAUCAGGCAUGCACCUGGUAGCUAGUCUUUAAACCAAUAGAUUGCAUCGGUUUAAAAGGCAAGACCGUCAAAUUGCGGGAAAGGGGUCAACAGCCGUUCAGUACCAAGUCUCAGGGGAAACUUUGAGAUGGCCUUGCAAAGGGUAUGGUAAUAAGCUGACGGACAUGGUCCUAACCACGCAGCCAAGUCCUAAGUCAACAGAUCUUCUGUUGAUAUGGAUGCAGUUCACAGACUAAAUGUCGGUCGGGGAAGAUGUAUUCUUCUCAUAAGAUAUAGUCGGACCUCUCCUUAAUGGGAGCUAGCGGAUGAAGUGAUGCAACACUGGAGCCGCUGGGAACUAAUUUGUAUGCGAAAGUAUAUUGAUUAGUUUUGGAGUACUCGUGGUCG
How it was run: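 Six replicate transformations of E. coli BL21(DE3) with a pET-22b(+) library were grown overnight at 37°C or 30°C. The library randomised all eight P1ex-region intron nucleotides, the intron lying in the knt kanamycin-resistance gene, and plates were LB agar with or without 25 μg/mL kanamycin plus 100 μg/mL carbenicillin, 50 μM IPTG and 0.2% rhamnose. Pooled colonies were amplicon-sequenced on an Illumina HiSeq 2500, and fitness is the DiMSum error-weighted combination of wild-type-normalised replicate fold changes, kanamycin versus none.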

Row | Sequence | self-splicing fitness (ln) (30 °C) | self-splicing fitness (ln) (37 °C)
1 | CGGAAGCAAUAUUACGGCUA | -2.54 ± 0.46 | -0.623 ± 0.28
2 | CGGAAGCAAUAUUACGGUGC | -3.17 ± 0.19 | -2.28 ± 0.19
3 | CGGAAGCAAUAUUACGUACC | -2.22 ± 0.066 | -0.907 ± 0.085
4 | CGGAAGCAAUAUUACGUAGA | -3.45 ± 0.2 | -1.82 ± 0.19
5 | CGGAAGCAAUAUUACGUAGU | -3.43 ± 0.14 | -1.97 ± 0.13
6 | CGGCAGCAAUAUUACGACGG | -0.297 ± 0.088 | 0.852 ± 0.15
7 | CGGCAGCAAUAUUACGACUU | -0.541 ± 0.06 | -0.196 ± 0.08
8 | CGGCAGCAAUAUUACGAGCG | -0.946 ± 0.09 | -0.441 ± 0.11
9 | CGGCAGCAAUAUUACGAGGC | -2.99 ± 0.32 | -2.53 ± 0.49
10 | CGGCAGCAAUAUUACGAUCC | -2 ± 0.13 | -1.03 ± 0.21
11 | CGGCAGCAAUAUUACGAUUA | -2.86 ± 0.22 | -2.17 ± 0.2
12 | CGGCAGCAAUAUUACGCAAA | -2.77 ± 0.2 | -2.43 ± 0.22
13 | CGGCAGCAAUAUUACGCAUC | -3.25 ± 0.26 | -2.39 ± 0.41
14 | CGGCAGCAAUAUUACGCCCA | 0.189 ± 0.12 | -0.0939 ± 0.14
15 | CGGCAGCAAUAUUACGCGUC | -4.09 ± 0.25 | -2.4 ± 0.18
16 | CGGCAGCAAUAUUACGCUAU | -3.57 ± 0.28 | -2.75 ± 0.26
17 | CGGCAGCAAUAUUACGGAAA | -3.57 ± 0.26 | -2.7 ± 0.18
18 | CGGCAGCAAUAUUACGGAAG | -1.07 ± 0.09 | -0.442 ± 0.12
19 | CGGCAGCAAUAUUACGGACG | -2.73 ± 0.21 | -2.42 ± 0.28
20 | CGGCAGCAAUAUUACGGACU | -2.26 ± 0.17 | -1.34 ± 0.2
21 | CGGCAGCAAUAUUACGGGGA | -3.21 ± 0.16 | -3.07 ± 0.21
22 | CGGCAGCAAUAUUACGGGUA | -3.66 ± 0.25 | -2.84 ± 0.19
23 | CGGCAGCAAUAUUACGUAUG | -1.55 ± 0.048 | -0.303 ± 0.065
24 | CGGCAGCAAUAUUACGUUAU | -2.5 ± 0.17 | -2.56 ± 0.21
25 | CGGCAGCAAUAUUACGUUUU | -3.75 ± 0.17 | -2.09 ± 0.14
26 | CGGGAGCAAUAUUACGAAGU |  | -1.89 ± 0.43
27 | CGGGAGCAAUAUUACGAGCC | -0.749 ± 0.46 | 

Row | Sequence | self-splicing fitness (ln) (30 °C) | self-splicing fitness (ln) (37 °C)
28 | CGGGAGCAAUAUUACGAGGG | -2.28 ± 0.29 | 
29 | CGGGAGCAAUAUUACGAUGG | -2.44 ± 0.2 | -0.953 ± 0.24
30 | CGGGAGCAAUAUUACGAUUG | -2.22 ± 0.46 | -1.72 ± 0.34
31 | CGGGAGCAAUAUUACGCACU | -2.4 ± 0.24 | -2.65 ± 0.25
32 | CGGGAGCAAUAUUACGCCGG | -2.87 ± 0.46 | -1.81 ± 0.34
33 | CGGGAGCAAUAUUACGCGCA |  | -0.737 ± 0.49
34 | CGGGAGCAAUAUUACGCGUC | -2.87 ± 0.22 | -2.8 ± 0.27
35 | CGGGAGCAAUAUUACGGAAG | -2.64 ± 0.18 | -1.3 ± 0.17
36 | CGGGAGCAAUAUUACGGCAU |  | -1.8 ± 0.35
37 | CGGGAGCAAUAUUACGGUAU | -3.81 ± 0.47 | -2.36 ± 0.42
38 | CGGGAGCAAUAUUACGGUGG | -3.1 ± 0.37 | -2.43 ± 0.45
39 | CGGGAGCAAUAUUACGUAUG | -3.99 ± 0.35 | 
40 | CGGGAGCAAUAUUACGUGGG | -2.97 ± 0.35 | 
41 | CGGGAGCAAUAUUACGUUCU | -3.58 ± 0.18 | -1.49 ± 0.19
42 | CGGUAGCAAUAUUACGAACG | -1.54 ± 0.13 | -1.29 ± 0.14
43 | CGGUAGCAAUAUUACGAGAG | -3.4 ± 0.19 | -0.673 ± 0.11
44 | CGGUAGCAAUAUUACGCCUC | -2.36 ± 0.38 | -0.282 ± 0.29
45 | CGGUAGCAAUAUUACGCCUU | -0.779 ± 0.11 | -0.542 ± 0.14
46 | CGGUAGCAAUAUUACGCGCG | -2.49 ± 0.31 | -1.87 ± 0.22
47 | CGGUAGCAAUAUUACGCGGU | -3.28 ± 0.22 | -2.96 ± 0.16
48 | CGGUAGCAAUAUUACGCUCA | -0.279 ± 0.15 | -0.399 ± 0.21
49 | CGGUAGCAAUAUUACGGACA | -1.91 ± 0.32 | -1.34 ± 0.29
50 | CGGUAGCAAUAUUACGGAGU | -3.33 ± 0.28 | -3.27 ± 0.35
51 | CGGUAGCAAUAUUACGGCAA | -2.22 ± 0.19 | -2.52 ± 0.28
52 | CGGUAGCAAUAUUACGGCUA | -1.59 ± 0.2 | -2.01 ± 0.28
53 | CGGUAGCAAUAUUACGGGCA | -1.75 ± 0.24 | -0.528 ± 0.2
54 | CGGUAGCAAUAUUACGGGCU | -3.22 ± 0.13 | -1.82 ± 0.14

Row | Sequence | self-splicing fitness (ln) (30 °C) | self-splicing fitness (ln) (37 °C)
55 | CGGUAGCAAUAUUACGGUCC | -2.24 ± 0.15 | -0.321 ± 0.17
56 | CGGUAGCAAUAUUACGUCUA | -0.754 ± 0.073 | -0.163 ± 0.081
57 | CGGUAGCAAUAUUACGUGUC | -2.99 ± 0.34 | -2.5 ± 0.21
58 | CGUAAGCAAUAUUACGAAGA | -3.07 ± 0.31 | 
59 | CGUAAGCAAUAUUACGAAGC | -2.95 ± 0.23 | -2.73 ± 0.26
60 | CGUAAGCAAUAUUACGAAUG | -0.363 ± 0.081 | -0.692 ± 0.088
61 | CGUAAGCAAUAUUACGACAA |  | -1.32 ± 0.23
62 | CGUAAGCAAUAUUACGACCC | -2.71 ± 0.38 | -2.23 ± 0.23
63 | CGUAAGCAAUAUUACGAGGA |  | -1.75 ± 0.33
64 | CGUAAGCAAUAUUACGAGUU | -3.38 ± 0.17 | -2.6 ± 0.23
65 | CGUAAGCAAUAUUACGCAAU | -3.61 ± 0.24 | -2.64 ± 0.23
66 | CGUAAGCAAUAUUACGCACA | -1.37 ± 0.18 | -0.0497 ± 0.23
67 | CGUAAGCAAUAUUACGCAUU | -3.95 ± 0.28 | -2.68 ± 0.18
68 | CGUAAGCAAUAUUACGCGAU | -3.53 ± 0.2 | -1.98 ± 0.18
69 | CGUAAGCAAUAUUACGCGCC |  | -1.97 ± 0.35
70 | CGUAAGCAAUAUUACGCGGG | -2.35 ± 0.15 | -2.72 ± 0.25
71 | CGUAAGCAAUAUUACGCGGU | -1.99 ± 0.23 | -1.69 ± 0.38
72 | CGUAAGCAAUAUUACGCGUG | -1.79 ± 0.088 | -0.855 ± 0.12
73 | CGUAAGCAAUAUUACGCGUU | -3.69 ± 0.36 | -2.31 ± 0.32
74 | CGUAAGCAAUAUUACGGCGC | -2.21 ± 0.26 | -2.2 ± 0.42
75 | CGUAAGCAAUAUUACGGGCU |  | -1.92 ± 0.21
76 | CGUAAGCAAUAUUACGGUUA | -2.29 ± 0.12 | -1.72 ± 0.14
77 | CGUAAGCAAUAUUACGUCGU | -3.41 ± 0.16 | -1.63 ± 0.15
78 | CGUAAGCAAUAUUACGUGCG | -2.95 ± 0.17 | -2.17 ± 0.16
79 | CGUAAGCAAUAUUACGUGGC | -4.85 ± 0.36 | -2.39 ± 0.15
